Results as given in publication PMC9774334.

How the values were obtained:
[1] = substrate: C[C@@H]1O[C@@H](Oc2ccc([N+](=O)[O-])cc2)[C@@H](O)[C@H](O)[C@@H]1O; test: purified protein; conditions: McIlvaine buffer pH 5.5, 35 °C
[2] = substrate: O=[N+]([O-])c1ccc(O[C@@H]2O[C@@H](CO)[C@H](O)[C@@H](O)[C@@H]2O)cc1; test: purified protein; conditions: McIlvaine buffer pH 5.5, 35 °C

| Protein | Km [1] | kcat [1] | kcat/Km [1] | Km [2] | kcat [2] | kcat/Km [2] |
| --- | --- | --- | --- | --- | --- | --- |
| ClAgl29B (Cecembia lonarensis LW9) (protein) QENKEKDRTPSSKHLTDNILQPKRSSDFMAFKYEYSTVDLYREFSESIMDKARSEVEILESVNRQGRYKPNVESLKLHEVPEWFEDAKLGIFLDWGPWSVPGYAPLKGAEASTGGSYPDWYEFLMDNLYKEYHDEVWGADFRRDDFLPLLTGENFNSEEYMLLAVNSGAKYFVPFTKHHAGWTMWESEFTKRNAVEMGPGRDIYKELIEAGKKYDMKMGFYFSVSEWEYPVIVDQNLSQWDPVKNLAIFQDALGQIPRATPLASYFPALHDRMISGKIPVKDYFADYMIPSFKEAVDKYDPDLVWYDGGWGSPVSISRTMETSAYFYNQAEGKKDVVINNRAGSSLSEDDLIKVRDLMDSGKRDEAMKIYLSGQQLGDYGTPEFTIGDVDIQSKWEVCRSISPAFGYNWQDDEASSLSGEELIKLFVDIVANNGNLLLVISPDGSGKLPDIQKDRLLELGDWMKVNAESIHNTRPWKVQKENDKFFTKSKDGKSLFVHCTNWPGENLIINTPIEEGIKGIKLLGSDINLQFTKASNGNLEIPIPKDFQNNPSLISKYVWTFKIDLN | 0.240 ± 0.011 mM | 0.0844 ± 0.0019 s⁻¹ | 352 ± 7 M⁻¹ s⁻¹ | 1.79 ± 0.18 mM | 7.76 ± 0.41 s⁻¹ | 4340 ± 220 M⁻¹ s⁻¹ |
| ClAgl29A (Cecembia lonarensis LW9) (protein) QVQYNPEKPARPEDHKPFFYKYNTRQLYEKFSDDLMQRAANDRKEIEKINQLGKYKPKKQSLDEHEVPEWFRDAKLGIFLDWGPWSVPGYAPPGSEGDTGGSYPDWYEFLMDFTYKAYHDSIWGEDFRRDDFLPLLHGNNFDSEEYAELAVQAGAKYMVPFARHHAGWTMWESKYTFRNAVEMGPKRDILKELVEASRKRDLKFGFYFSIAEWEYPVITKERVSQWDPYEDMAIFHDGMGLIPRPVPLASYFPARHDRMISGKIPVKDYFGDYMMPLFKEGVDLFDPDLVWYDGGWGTPANSSRVPELSAYFYNQAEGRKEVVINNRAGAYLDDSNLLKFNEVLKSGEHDKLLELYMKAEQIGDYLTPEYSIGNVDINEPWEVCRSISPAFGFNWTDNEENSLSSKELVKMFVGIVANNGNLLLVINPDGSGKLSNVQKDRLLDLGQWLKVNGEGIYSTRPWEIQESEGNFFTKSKNGEFIYIHILDKEKTTIEVPNLNPKNKGAISILGSKEKVLWENSGPITRITIPESFKDERNWPNKYGFTLKVAVK | 0.279 ± 0.005 mM | 0.0658 ± 0.0008 s⁻¹ | 236 ± 5 M⁻¹ s⁻¹ | 2.01 ± 0.26 mM | 2 ± 0.11 s⁻¹ | 1000 ± 80 M⁻¹ s⁻¹ |
